Where a chain is given by its changes, count along the chain named. Names and notes keep the numbering of the source.
T1: canine FcRn (soluble large subunit p51 isoform X2 with 6xHis-tag, co-expressed with canine … (canine))
T1 construct: Heterodimer made by co-expression in CHO cells, purified on HISTRAP FF, >95% pure by SEC; Both entries hold a 19-residue signal peptide at the N-terminus that should be removed (residues 1-19); also called FcRn complex
T1 chain: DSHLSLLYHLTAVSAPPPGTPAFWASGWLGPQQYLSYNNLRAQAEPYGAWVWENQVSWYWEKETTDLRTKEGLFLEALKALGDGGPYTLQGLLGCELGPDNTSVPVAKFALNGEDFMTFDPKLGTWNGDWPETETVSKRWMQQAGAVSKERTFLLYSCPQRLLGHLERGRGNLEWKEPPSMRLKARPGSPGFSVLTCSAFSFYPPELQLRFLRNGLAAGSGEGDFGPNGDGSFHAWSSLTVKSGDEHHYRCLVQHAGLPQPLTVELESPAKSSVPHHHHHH
T1 b2m: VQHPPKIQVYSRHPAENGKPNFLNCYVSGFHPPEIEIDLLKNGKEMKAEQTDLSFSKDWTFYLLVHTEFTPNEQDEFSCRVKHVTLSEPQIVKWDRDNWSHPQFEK

B1: IgG with wild-type canine IgGB Fc (antibody)
heavy: EVQLVESGGDLVAPSQSLSITCTVSGMSLTSNSISWVRQPPGRGLEWLGTIWSNGGTDYTDAVKGRFTISRDNAKNTVYLQMNSLRAEDTAMYYCAQIYYYDADYLHWYFDFWGQGTLVTVSSASTTAPSVFPLAPSCGSTSGSTVALACLVSGYFPEPVTVSWNSGSLTSGVHTFPSVLQSSGLYSLSSMVTVPSSRWPSETFTCNVAHPASKTKVDKPVPKRENGRVPRPPDCPKCPAPEAAGGPSVFIFPPKPKDTLLIARTPEVTCVVVDLDPEDPEVQISWFVDGKQMQTAKTQPREEQFNGTYRVVSVLPIGHQDWLKGKQFTCKVNNKALPSPIERTISKARGQAHQPSVYVLPPSREELSKNTVSLTCLIKDFFPPDIDVEWQSNGQQEPESKYRTTPPQLDEDGSYFLYSKLSVDKSRWQRGDTFICAVMHEALHNHYTQESLSHSPG
light: EIVMTQSPASLSASQEEKVTITCRASEGISNNLAWYQQKPGQAPKLLIHATSSLQTGVPSRFSGSGSGTDFTLTISSLQPEDFATYYCQQGYQFPLTFGQGTKVEIKRNDAQPAVYLFQPSPDQLHTGSASVVCLLNSFYPKDINVKWKVDGVIQDTGIQESVTEQDKDSTYSLSSTLTMSSTEYLSHELYSCEITHKSLPSTLIKSFQRSECQRVD
notes: Full chains; canine IgGB constant domain with MALA mutations; variable domains of WO 2023/97275; also called Wild-type Fc
B2: IgG with canine IgGB Fc variant L252Y, T286W (antibody)
heavy: B1 heavy with L261Y, T295W
light: B1 light
notes: Full chains; canine IgGB constant domain with MALA mutations; variable domains of WO 2023/97275
B3: IgG with canine IgGB Fc variant N434H, T286Y (antibody)
heavy: B1 heavy with T295Y, N445H
light: B1 light
notes: as for B2
B4: IgG with canine IgGB Fc variant L252Y, T286L (antibody)
heavy: B1 heavy with L261Y, T295L
light: B1 light
notes: as for B2
B5: IgG with canine IgGB Fc variant N434H, T286F (antibody)
heavy: B1 heavy with T295F, N445H
light: B1 light
notes: as for B2
B6: IgG with canine IgGB Fc variant N434H, T286L (antibody)
heavy: B1 heavy with T295L, N445H
light: B1 light
notes: as for B2
B7: IgG with canine IgGB Fc variant N434H, A426F (antibody)
heavy: B1 heavy with A437F, N445H
light: B1 light
notes: as for B2
B8: IgG with canine IgGB Fc variant L252Y, A426L (antibody)
heavy: B1 heavy with L261Y, A437L
light: B1 light
notes: as for B2
B9: IgG with canine IgGB Fc variant L252Y, T286F (antibody)
heavy: B1 heavy with L261Y, T295F
light: B1 light
notes: as for B2
B10: IgG with canine IgGB Fc variant L252M, T286Y (antibody)
heavy: B1 heavy with L261M, T295Y
light: B1 light
notes: as for B2
B11: IgG with canine IgGB Fc variant L252Y, A426H (antibody)
heavy: B1 heavy with L261Y, A437H
light: B1 light
notes: as for B2
B12: IgG with canine IgGB Fc variant L252M, T286W (antibody)
heavy: B1 heavy with L261M, T295W
light: B1 light
notes: as for B2
B13: IgG with canine IgGB Fc variant N434H (antibody)
heavy: B1 heavy with N445H
light: B1 light
notes: as for B2
B14: IgG with canine IgGB Fc variant N434H, A426Y (antibody)
heavy: B1 heavy with A437Y, N445H
light: B1 light
notes: as for B2
B15: IgG with canine IgGB Fc variant L252Y (antibody)
heavy: B1 heavy with L261Y
light: B1 light
notes: as for B2
B16: IgG with canine IgGB Fc variant N434H, A426W (antibody)
heavy: B1 heavy with A437W, N445H
light: B1 light
notes: as for B2
B17: IgG with canine IgGB Fc variant N434H, A426L (antibody)
heavy: B1 heavy with A437L, N445H
light: B1 light
notes: as for B2
B18: IgG with canine IgGB Fc variant N434H, T286W (antibody)
heavy: B1 heavy with T295W, N445H
light: B1 light
notes: as for B2
B19: IgG with canine IgGB Fc variant L252Y, T286Y (antibody)
heavy: B1 heavy with L261Y, T295Y
light: B1 light
notes: as for B2

How the values were obtained:
[1] = target: T1, canine FcRn (soluble large subunit p51 …); assay: SPR, IgG on protein L chip, FcRn in flow, pH 5.9, 1:1 fit; pH 5.9, 1:1 kinetic fit
Description: (§1) The canine FcRn binding experiments at pH 5.9 and pH 7.4 were completed on a BIACORE™ T200 instrument. A Series S Protein L Sensor chip (Cytiva, Cat. No. BR29205137) was used to capture the antibody variants via the kappa (κ) light chain. The canine variants were captured onto the protein L chip at a flow rate of 10 μL/min for 60 seconds. Approximately 250 RUs of the variants were captured. For the low pH binding condition, 1×PBX-P+ (Cytiva, Cat. No. 28995084) was adjusted to pH 5.9. The canine FcRn was flowed over the sensor chip at 30 μL/min for 120 seconds contact time and 600 seconds dissociation time. Regeneration of the flow cells was completed by flowing over 10 mM glycine, pH 1.7 at 30 μL/min for 30 seconds. The data were evaluated by the BIACORE™ T200 Evaluation software (version 3.2.1) by fitting to a 1:1 kinetic interaction model.

[2] = target: T1, canine FcRn (soluble large subunit p51 …); assay: SPR, IgG on protein L chip, FcRn in flow, pH 5.9, 1:1 fit
Description: as §1

[3] = target: T1, canine FcRn (soluble large subunit p51 …); assay: SPR, IgG on protein L chip, FcRn in flow, pH 5.9, kinetic data
Description: as §1

[4] = target: T1, canine FcRn (soluble large subunit p51 …); assay: SPR, IgG on protein L chip, FcRn in flow, pH 7.4, steady state fit
Description: as §1
A subset of the Fc variants was tested for binding to canine FcRn at pH 7.4. For these experiments, 1×PBX-P+ (Cytiva, Cat. No. 28995084) was adjusted to pH 7.4. […] In addition, the pH 7.4 data were evaluated by the BIACORE™ T200 Evaluation software (version 3.2.1) by fitting to steady state affinity model. The kinetic binding data for the variants at pH 7.4 along with the binding data at pH 5.9 for these variants are shown in Table 7 below.

Row | Binder | Kd [1] [nM] | koff [1] [s⁻¹] | kon [1] [M⁻¹ s⁻¹] | Kd [2] [nM] | koff [2] [s⁻¹] | kon [2] [M⁻¹ s⁻¹] | Kd [3] [nM] | koff [3] [s⁻¹] | kon [3] [M⁻¹ s⁻¹] | Kd [4] [nM]
1 | B1 | 231 | 0.0927 | 285000 | – | – | – | – | – | – | –
2 | B2 | – | – | – | 9.82 | 0.0203 | 2.07e+06 | – | – | – | –
3 | B3 | – | – | – | 15.7 | 0.0318 | 2.04e+06 | 15.7 | 0.0318 | 2.04e+06 | 2170
4 | B4 | – | – | – | 18.2 | 0.0237 | 1.31e+06 | 18.2 | 0.0237 | 1.31e+06 | 2620
5 | B5 | – | – | – | 14.4 | 0.0361 | 2.52e+06 | 14.4 | 0.0361 | 2.52e+06 | 2370
6 | B6 | – | – | – | 21.3 | 0.0518 | 2.44e+06 | 21.3 | 0.0518 | 2.44e+06 | 3450
7 | B7 | – | – | – | 11.8 | 0.0296 | 2.5e+06 | 11.8 | 0.0296 | 2.5e+06 | 1380
8 | B8 | – | – | – | 6.41 | 0.012 | 1.87e+06 | 6.41 | 0.012 | 1.87e+06 | 713
9 | B9 | – | – | – | 10.8 | 0.0193 | 1.79e+06 | – | – | – | –
10 | B10 | – | – | – | 66.6 | 0.0822 | 1.24e+06 | – | – | – | –
11 | B11 | – | – | – | 3.76 | 0.00598 | 1.59e+06 | 3.76 | 0.00598 | 1.59e+06 | 388
12 | B12 | – | – | – | 64.5 | 0.0912 | 1.42e+06 | – | – | – | –
13 | B13 | – | – | – | 55.3 | 0.097 | 1.75e+06 | 55.3 | 0.097 | 1.75e+06 | 5400
14 | B14 | – | – | – | 10.9 | 0.0252 | 2.31e+06 | 10.9 | 0.0252 | 2.31e+06 | 1050
15 | B15 | – | – | – | 43.5 | 0.0491 | 1.13e+06 | 43.5 | 0.0491 | 1.13e+06 | 4440
16 | B16 | – | – | – | 14.5 | 0.0406 | 2.79e+06 | 14.5 | 0.0406 | 2.79e+06 | 1790
17 | B17 | – | – | – | 18.9 | 0.0492 | 2.61e+06 | 18.9 | 0.0492 | 2.61e+06 | 2030
18 | B18 | – | – | – | 11.5 | 0.0321 | 2.78e+06 | 11.5 | 0.0321 | 2.78e+06 | 2070
19 | B19 | – | – | – | 10.2 | 0.018 | 1.76e+06 | – | – | – | –

Source: patent US20240209096A1 (INVETX, published 2024)
